Reference: paper PMC11789017, “Preventing inappropriate signals pre- and post-ligand perception by a toggle switch mechanism of ERECTA” (Proceedings of the National Academy of Sciences of the …, 2025)
Values belong to the molecule of their own block, whether it stands above or below them.

B1: MBP-fused full-length ER cytoplasmic domain (MBP-ER_CD) (domain or fragment, Arabidopsis, UniProt Q42371 602-976, looked up)
chain: CRPHNPPPFLDGSLDKPVTYSTPKLVILHMNMALHVYEDIMRMTENLSEKYIIGHGASSTVYKCVLKNCKPVAIKRLYSHNPQSMKQFETELEMLSSIKHRNLVSLQAYSLSHLGSLLFYDYLENGSLWDLLHGPTKKKTLDWDTRLKIAYGAAQGLAYLHHDCSPRIIHRDVKSSNILLDKDLEARLTDFGIAKSLCVSKSHTSTYVMGTIGYIDPEYARTSRLTEKSDVYSYGIVLLELLTRRKAVDDESNLHHLIMSKTGNNEVMEMADPDITSTCKDLGVVKKVFQLALLCTKRQPNDRPTMHQVTRVLGSFMLSEQPPAATDTSATLAGSCYVDEYANLKTPHSVNCSSMSASDAQLFLRFGQVISQNSE
notes: ERECTA (ER) receptor kinase, Arabidopsis, cytoplasmic domain (juxtamembrane domain, kinase domain and C-terminal tail); source: recombinant, expressed and purified; not shown: MBP, N-terminal, kept

Key:
[1] = biological target: GST-PUB30 (U-box E3 ligase PUB30) (UniProt Q058P4); assay: BLI; recombinantly purified GST-BKI1 or GST-PUB30 and MBP-ER_CD variants at seven concentrations (156.25, 312.5, 625, 1,250, 2,500, 5,000 and 10,000 nM); three independent experiments; who was immobilised is in SI Appendix
[2] = biological target: GST-BKI1 (BRI1 KINASE INHIBITOR 1) (UniProt Q9FMZ0); assay: as above
[3] = biological target: T1, GST-PUB30 (U-box E3 ligase PUB30) (UniProt Q058P4 1-448); assay: as above; settings: both partners purified
T1 construct: plant U-box (PUB) E3 ubiquitin ligase PUB30; Tag end from the order of the printed name; source: recombinantly purified; not shown: GST, N-terminal, kept
T1 sequence (looked up): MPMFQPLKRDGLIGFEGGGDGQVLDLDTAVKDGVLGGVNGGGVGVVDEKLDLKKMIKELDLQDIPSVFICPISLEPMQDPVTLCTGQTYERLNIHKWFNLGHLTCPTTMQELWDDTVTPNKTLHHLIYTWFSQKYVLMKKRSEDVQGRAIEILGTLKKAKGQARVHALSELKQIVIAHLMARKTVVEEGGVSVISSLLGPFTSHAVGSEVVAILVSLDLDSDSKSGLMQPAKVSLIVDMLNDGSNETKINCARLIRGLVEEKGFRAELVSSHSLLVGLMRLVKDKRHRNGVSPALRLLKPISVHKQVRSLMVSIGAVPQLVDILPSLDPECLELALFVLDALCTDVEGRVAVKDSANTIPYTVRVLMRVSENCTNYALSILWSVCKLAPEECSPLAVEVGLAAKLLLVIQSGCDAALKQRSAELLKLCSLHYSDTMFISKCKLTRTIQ

[4] = biological target: T2, MBP-ER_CD_(T/S8A), phosphonull version (Arabidopsis, UniProt Q42371 602-976, Thr947 (T/S8A) | Ser950 (T/S8A) | Ser954 (T/S8A) | Ser955 (T/S8A) | Ser957 …); assay: as above; settings: both partners purified
T2 construct: ERECTA (ER), Arabidopsis, cytoplasmic domain with the eight phosphosites of the C-terminal tail changed to alanine; Tag end from the order of the printed name; source: recombinant, purified; not shown: MBP, N-terminal, kept
T2 sequence (looked up): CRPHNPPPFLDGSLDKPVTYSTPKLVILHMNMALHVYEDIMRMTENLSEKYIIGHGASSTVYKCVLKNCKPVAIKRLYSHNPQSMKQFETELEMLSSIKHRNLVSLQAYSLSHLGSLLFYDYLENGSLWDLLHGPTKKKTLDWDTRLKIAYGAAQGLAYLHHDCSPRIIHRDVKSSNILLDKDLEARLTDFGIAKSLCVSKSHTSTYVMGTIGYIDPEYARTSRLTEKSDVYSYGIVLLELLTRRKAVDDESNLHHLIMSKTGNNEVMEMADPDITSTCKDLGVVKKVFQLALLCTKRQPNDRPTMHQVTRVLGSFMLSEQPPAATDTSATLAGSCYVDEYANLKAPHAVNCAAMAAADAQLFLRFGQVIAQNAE

[5] = biological target: B1; assay: as above; settings: both partners purified
[6] = biological target: T3, MBP-ER_CD_(T/S8E), phosphomimetic version (Arabidopsis, UniProt Q42371 602-976, Thr947 (T/S8E) | Ser950 (T/S8E) | Ser954 (T/S8E) | Ser955 (T/S8E) | Ser957 …); assay: BLI
T3 sequence: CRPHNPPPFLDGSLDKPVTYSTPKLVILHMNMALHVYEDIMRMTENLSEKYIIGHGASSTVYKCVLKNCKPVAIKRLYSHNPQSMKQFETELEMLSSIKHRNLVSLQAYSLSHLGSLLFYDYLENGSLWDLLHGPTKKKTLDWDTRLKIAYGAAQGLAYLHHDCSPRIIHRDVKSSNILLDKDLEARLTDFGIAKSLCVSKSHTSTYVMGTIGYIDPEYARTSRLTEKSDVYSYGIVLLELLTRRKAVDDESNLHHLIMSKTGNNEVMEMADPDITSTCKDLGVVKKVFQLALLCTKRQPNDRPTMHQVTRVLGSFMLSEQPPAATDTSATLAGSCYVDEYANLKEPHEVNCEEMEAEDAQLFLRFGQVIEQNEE

[7] = biological target: T4, MBP-ER_CD_(T/S8A), phosphonull version (Arabidopsis, UniProt Q42371 602-976, Thr947 (T/S8A) | Ser950 (T/S8A) | Ser954 (T/S8A) | Ser955 (T/S8A) | Ser957 …); assay: BLI
T4 sequence: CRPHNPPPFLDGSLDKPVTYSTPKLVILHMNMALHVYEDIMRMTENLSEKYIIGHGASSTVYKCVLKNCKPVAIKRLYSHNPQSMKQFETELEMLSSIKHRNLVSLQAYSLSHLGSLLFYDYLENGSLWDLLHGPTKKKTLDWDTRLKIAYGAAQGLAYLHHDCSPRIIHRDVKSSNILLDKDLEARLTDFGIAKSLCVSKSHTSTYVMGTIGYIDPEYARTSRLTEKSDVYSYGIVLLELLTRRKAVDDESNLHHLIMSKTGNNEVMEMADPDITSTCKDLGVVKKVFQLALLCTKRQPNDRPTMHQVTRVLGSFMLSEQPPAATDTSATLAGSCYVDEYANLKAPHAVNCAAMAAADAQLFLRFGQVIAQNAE

Molecule: MBP-ER_CD_(ΔCTα-Helix) (domain or fragment)
- Kd [1]: 0.805 µM
- Kd [2]: 47.7 µM

Molecule: B1
- Kd [3]: 0.393 ± 0.048 µM

B4: GST-PUB30 (U-box E3 ligase PUB30) (enzyme)
chain: MPMFQPLKRDGLIGFEGGGDGQVLDLDTAVKDGVLGGVNGGGVGVVDEKLDLKKMIKELDLQDIPSVFICPISLEPMQDPVTLCTGQTYERLNIHKWFNLGHLTCPTTMQELWDDTVTPNKTLHHLIYTWFSQKYVLMKKRSEDVQGRAIEILGTLKKAKGQARVHALSELKQIVIAHLMARKTVVEEGGVSVISSLLGPFTSHAVGSEVVAILVSLDLDSDSKSGLMQPAKVSLIVDMLNDGSNETKINCARLIRGLVEEKGFRAELVSSHSLLVGLMRLVKDKRHRNGVSPALRLLKPISVHKQVRSLMVSIGAVPQLVDILPSLDPECLELALFVLDALCTDVEGRVAVKDSANTIPYTVRVLMRVSENCTNYALSILWSVCKLAPEECSPLAVEVGLAAKLLLVIQSGCDAALKQRSAELLKLCSLHYSDTMFISKCKLTRTIQ
- Kd [6]: 0.194 µM
- Kd [7]: 9.5 µM

Continued, values first:

- binding result [3]: binds
B2: MBP-ER_CD_(T/S8E), phosphomimetic version (domain or fragment, Arabidopsis, UniProt Q42371 602-976, looked up)
chain: CRPHNPPPFLDGSLDKPVTYSTPKLVILHMNMALHVYEDIMRMTENLSEKYIIGHGASSTVYKCVLKNCKPVAIKRLYSHNPQSMKQFETELEMLSSIKHRNLVSLQAYSLSHLGSLLFYDYLENGSLWDLLHGPTKKKTLDWDTRLKIAYGAAQGLAYLHHDCSPRIIHRDVKSSNILLDKDLEARLTDFGIAKSLCVSKSHTSTYVMGTIGYIDPEYARTSRLTEKSDVYSYGIVLLELLTRRKAVDDESNLHHLIMSKTGNNEVMEMADPDITSTCKDLGVVKKVFQLALLCTKRQPNDRPTMHQVTRVLGSFMLSEQPPAATDTSATLAGSCYVDEYANLKEPHEVNCEEMEAEDAQLFLRFGQVIEQNEE
notes: ERECTA (ER), Arabidopsis, cytoplasmic domain with the eight phosphosites of the C-terminal tail changed to glutamate; Tag end from the order of the printed name; source: recombinant, purified; not shown: MBP, N-terminal, kept

- binding result [4]: binds
- Kd [5]: 3.7 ± 0.7 µM
- Kd [6]: 18 µM
- Kd [7]: 3.8 µM
B3: GST-BKI1 (BRI1 KINASE INHIBITOR 1) (natural protein, UniProt Q9FMZ0 1-337, looked up)
chain: METNLQQVKNSSQTFSEKQNPKQEASPSPISSTCSSPSHDFSFTISLQPLSSSSKHISPTLRSPSKTTSSYQQTDPFAVDLSPADEIFFHGHLLPLHLLSHLPVSPRTSTGSYNDGFTLPVKDILPDQPTNNNNNTENAITNISTEAKDDNTEDKAEGEIRVKTKPIKSFSLFGLSKWRKGFESNEREQEQQQQKIKKPMSLDLSHAVKKYIRMLFQKRGNGTQFWNRRQTSSYSFSSSLMGPNGNSKTMINGSYNKRDLIRGRRGELFSAPASMRTSPTNSGHLRVSTAGLSSSSGSTSSSSSDSTMEELQAAIQAAIAHCKNSSAVDRDDKVKDS
notes: Tag end from the order of the printed name; source: recombinantly purified; not shown: GST, N-terminal, kept
